In assay [1] the target is T1, ΔF508 CFTR (Homo sapiens, UniProt P13569, DEL508-508). The assay is described as follows: Chloride permeability by SPQ fluorescence assay upon forskolin stimulation, CFBE41o− cells. Format: cell-based. The method, then:
(§1) Cells. Cell Lines and Cell Culture—Human bronchial epithelial (HBE) cells, homozygous for the […] mutation and its isogenic wild-type were obtained from lung transplants (CF patients) or lung resections (non-CF patients) (kindly provided by L J Galietta within the Italian Cystic Fibrosis Foundation). Cells were maintained at 37° C. in a humidified incubator in an atmosphere containing 5% CO2, and the experiments were done 5 days after plating (21, 22). Stable lentiviral-based transduction of the parental CFBE41o− cells (ΔF508/ΔF508), originally immortalized and characterized by Dr. D. Gruenert and co-workers (32) with either WT-CFTR or ΔF508-CFTR, was performed by Tranzyme, Inc. (Birmingham, AL). […]
(§2) The activity of Tα1, either alone or in combination with ivacaftor, has been comparatively assessed with that of lumacaftor on CFBE41o− cells expressing ΔF508 CFTR and on HBE cells from CF patients. To this purpose, cells were treated with Tα1 (100 ng/ml), VX-770 (1 μM) or VX-809 (3 μM) alone or in combination for 24 hours and assessed for CFTR protein expression and function. […] In terms of ion channel activity, Tα1, either alone or in combination with ivacaftor, increased the chloride permeability of ΔF508 CFTR cells between 60 to 70% relative to control (considering WT control as 100% reference value)(B, assessed by a fluorescence assay upon stimulation with fosforkolin, Fsk). […]

Assay [2] has as its target T1, ΔF508 CFTR. Briefly: Chloride permeability by SPQ fluorescence assay upon forskolin stimulation, HBE cells from CF patients. Format: cell-based. The method, then:
as §1, §2

For assay [3], the system named is A. fumigatus-infected C57BL/6 and Cftr−/− mice. Briefly: Lung inflammatory pathology and cell recruitment in Aspergillus-infected mice. The class given is in vivo. To be noted: 200 μg/kg/i.p. daily for 6 days, 7 days post-infection. The method, then: Mice. Wild-type (WT) inbred C57BL6 mice, 8 to 12 weeks old, were purchased from Charles River Breeding Laboratories (Calco, Italy). Genetically engineered homozygote Cftr^−/− mice (33) were bred at the Cystic Fibrosis core animal facility at San Raffaele Hospital, Milan, Italy. Experiments were performed following protocols approved by the institutional animal committee and in accordance with European Economic Community Council Directive as well as institutional animal care and use guidelines.
Infection and treatments. Mice were anesthetized by i.p. injection of 2.5% avertin (Sigma Chemical Co, St. Louis, MO) before intranasal instillation of 2×10^7 A. fumigatus (Af293) resting conidia/20 μl saline. For histology, paraffin-embedded tissue were stained with Periodic acid-Schiff (PAS), and BAL fluid collection was done as described (21, 22). […]
Aspergillus-infected mice were treated with 200 μg/kg/i.p. daily of Tα1 for 6 consecutive days beginning the day of the infection. Mice were monitored for lung inflammatory pathology and cell recruitment at 7 days post-infection. […] Differential cell count of mononuclear (MNC), polymorphonuclear (PMN) cells and eosinophils (EOS) was determined upon May Grunwald Giemsa staining. […]

T1 sequence (P13569 with tags, fused parts or gaps DEL508-508): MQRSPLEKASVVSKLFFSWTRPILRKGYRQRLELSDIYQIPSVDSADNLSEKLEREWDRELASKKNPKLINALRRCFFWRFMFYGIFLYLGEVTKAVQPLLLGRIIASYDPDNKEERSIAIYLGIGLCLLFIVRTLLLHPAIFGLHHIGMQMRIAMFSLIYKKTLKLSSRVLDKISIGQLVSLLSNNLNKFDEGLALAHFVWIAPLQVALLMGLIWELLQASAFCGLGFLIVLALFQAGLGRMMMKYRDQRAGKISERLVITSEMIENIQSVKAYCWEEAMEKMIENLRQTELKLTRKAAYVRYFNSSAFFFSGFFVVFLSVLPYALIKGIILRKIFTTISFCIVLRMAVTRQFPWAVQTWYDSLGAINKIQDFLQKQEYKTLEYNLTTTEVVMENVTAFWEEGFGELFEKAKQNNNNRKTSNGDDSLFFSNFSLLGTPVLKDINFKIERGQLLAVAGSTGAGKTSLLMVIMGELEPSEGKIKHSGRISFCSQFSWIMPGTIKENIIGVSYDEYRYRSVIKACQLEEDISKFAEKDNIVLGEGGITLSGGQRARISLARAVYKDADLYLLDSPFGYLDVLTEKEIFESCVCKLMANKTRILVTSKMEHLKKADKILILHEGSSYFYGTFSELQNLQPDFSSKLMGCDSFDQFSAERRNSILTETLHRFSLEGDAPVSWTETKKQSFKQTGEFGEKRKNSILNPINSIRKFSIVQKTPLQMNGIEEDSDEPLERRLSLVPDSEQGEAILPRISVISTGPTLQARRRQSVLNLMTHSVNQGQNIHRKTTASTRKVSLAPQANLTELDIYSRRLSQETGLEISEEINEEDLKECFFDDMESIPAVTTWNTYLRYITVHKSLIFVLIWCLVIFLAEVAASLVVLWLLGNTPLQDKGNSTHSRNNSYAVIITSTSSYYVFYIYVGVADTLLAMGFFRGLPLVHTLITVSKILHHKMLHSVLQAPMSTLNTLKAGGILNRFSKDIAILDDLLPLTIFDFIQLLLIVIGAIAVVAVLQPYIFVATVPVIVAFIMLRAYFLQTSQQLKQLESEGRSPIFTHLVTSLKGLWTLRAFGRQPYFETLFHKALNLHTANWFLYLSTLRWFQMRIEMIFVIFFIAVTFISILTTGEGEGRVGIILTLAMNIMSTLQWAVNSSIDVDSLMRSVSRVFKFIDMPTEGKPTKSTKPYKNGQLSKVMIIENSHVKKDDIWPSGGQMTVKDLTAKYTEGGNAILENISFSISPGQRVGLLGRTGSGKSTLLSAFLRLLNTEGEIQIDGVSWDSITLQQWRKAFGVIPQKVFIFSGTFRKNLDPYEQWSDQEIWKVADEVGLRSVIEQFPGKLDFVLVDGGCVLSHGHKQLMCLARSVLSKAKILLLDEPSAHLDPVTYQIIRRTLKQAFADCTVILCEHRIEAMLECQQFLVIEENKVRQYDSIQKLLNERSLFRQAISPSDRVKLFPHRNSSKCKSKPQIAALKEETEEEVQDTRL

“Ac-Ser-Asp-Ala-Ala-Val-Asp-Thr-Ser-Ser-Glu-Ile-Thr-Thr-Lys-Asp-Leu-Lys-Glu-Lys-Lys-Glu-Val-Val-Glu-Glu-Ala-Glu-Asn-O (Ac-SDAAVDTSSEITTKDLKEKKEVVEEAEN-OH; not fully specified; printed as Ac-Ser-Asp-Ala-Ala-Val-Asp-Thr-Ser-Ser-Glu-Ile-Thr-Thr-Lys-Asp-Leu-Lys-Glu-Lys-Lys-Glu-Val-Val-Glu-Glu-Ala-Glu-Asn-O; listed as Homo sapiens) [Tα1, naturally occurring polypeptide of 28 amino acid; supplied as purified sterile, lyophilized, acetylated polypeptide]”: the “chloride permeability of ΔF508 CFTR cells relative to control (WT control as 100%)” value is on record as “approximately 70%” in the assay with ΔF508 CFTR [1] (100 ng/ml Tα1 for 24 hours, CFBE41o− cells, forskolin stimulation) and “approximately 70%” with ΔF508 CFTR [2] (100 ng/ml Tα1 for 24 hours, forskolin stimulation). Further, the “ion channel activity compared to lumacaftor” value with ΔF508 CFTR [1] (CFBE41o− cells expressing ΔF508 CFTR, 24 hours) is on record as “lower”; with ΔF508 CFTR [2] (24 hours) it was “similar”. The “local inflammatory cell recruitment and lung pathology (lung and BAL)” value in assay [3] (C57/BL6 mice) and in assay [3] (Cftr−/− mice) was “significantly decreased” in each case.

(Values after US12083165B2, “Thymosin alpha 1 for use in treatment of cystic fibrosis” (SciClone Pharmaceuticals International (SG) PTE. LTD., priority 2015, dated 2024).)
